The values that follow come from patent US20220403031A1.

For assay [1], the target named is human PD-L1 on CHO-K1 cells (W315-CHO-K1.hPro1.C11) (human) (UniProt Q9NZQ7). Kind of assay: FACS affinity on human PD-L1 cells, quantitative beads. More on the design: Bmax: unit not given here.
For assay [2], the target named is 4-1BB.his (Homo sapiens (Human)) (UniProt Q07011). Description: non-specific binding ELISA; antigen coated at 2 ug/mL, antibody at 10 ug/ml.
A further assay addresses OX40.his. The description is as above.
In assay [3] the target is HER3.his (Homo sapiens (Human)) (UniProt P21860). The assay is described as above.
For assay [4], the target named is PD-1.his (Homo sapiens (Human)) (UniProt Q15116). The description is as above.
PD-1.his (Homo sapiens (Human)), sequence (Q15116 25-170 limits assumed): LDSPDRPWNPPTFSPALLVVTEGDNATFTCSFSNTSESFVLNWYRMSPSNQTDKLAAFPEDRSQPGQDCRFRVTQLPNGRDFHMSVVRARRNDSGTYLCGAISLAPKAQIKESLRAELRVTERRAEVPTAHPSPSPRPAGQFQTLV

human PD-L1 on CHO-K1 cells (W315-CHO-K1.hPro1.C11) (human), sequence (Q9NZQ7 19-290): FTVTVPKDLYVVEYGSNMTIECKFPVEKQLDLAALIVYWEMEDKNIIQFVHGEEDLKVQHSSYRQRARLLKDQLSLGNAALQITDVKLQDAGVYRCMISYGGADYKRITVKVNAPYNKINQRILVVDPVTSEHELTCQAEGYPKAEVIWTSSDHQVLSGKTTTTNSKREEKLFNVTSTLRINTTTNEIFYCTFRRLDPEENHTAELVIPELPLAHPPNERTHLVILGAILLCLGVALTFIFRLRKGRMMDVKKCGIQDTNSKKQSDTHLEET
OX40.his, sequence (P43489 29-214): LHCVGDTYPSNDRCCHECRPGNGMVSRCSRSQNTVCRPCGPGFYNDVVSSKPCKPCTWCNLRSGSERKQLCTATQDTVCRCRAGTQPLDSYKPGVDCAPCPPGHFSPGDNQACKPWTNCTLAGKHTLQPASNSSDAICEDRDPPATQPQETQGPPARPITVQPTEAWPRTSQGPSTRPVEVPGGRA
4-1BB.his (Homo sapiens (Human)), sequence (Q07011 24-186 limits assumed): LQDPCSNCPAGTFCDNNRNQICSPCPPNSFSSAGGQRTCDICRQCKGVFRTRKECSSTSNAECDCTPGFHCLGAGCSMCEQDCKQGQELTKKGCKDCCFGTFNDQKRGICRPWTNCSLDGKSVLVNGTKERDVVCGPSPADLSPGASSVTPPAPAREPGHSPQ

B1: BMK9.Fc(IgG4) (Benchmark antibody 9, variable region of KN035 conjugated with human IgG4 constant region) (Fc fusion, INN chains, looked up)
VH: QVQLVESGGGLVQPGGSLRLSCAASGKMSSRRCMAWFRQAPGKERERVAKLLTTSGSTYLADSVKGRFTISRDNSKNTVYLQMNSLRAEDTAVYYCAADSFEDPTCTLVTSSGAFQYWGQGTLVTVSS
modifications: VHH-Fc IgG4
In assay [1], B1 had a Bmax of 2.8e-10 and a Kd of 0.24 nM.

B2: AP3R2-1A3-z12-hIgG4 (Fc fusion, not shown: a dimerising Fc or GST)
chain: EVQLVESGGGLVQPGGSLRLSCAASGHFSNLAVNWFRQAPGKERELVAGILWSGGSTFYADSVKGRFTISRGNAENMLYLQMNSLRAEDTAVYYCNTGTNWGQGTLVTVSS
As for B2, the Absorbance at 450 nm in assay [2] worked out at 0.07; with OX40.his, 0.06; in assay [3], 0.07; in assay [4], 0.06.
